Assay [1] addresses Plk1 PBD (residues 326-603), purified recombinant (UniProt P53350). The experiment in a line: ITC (Table 1, not given).
Assay [2] has as its target Plk1 (endogenous, in mitotic HeLa cell lysates) (UniProt P53350). Kind of assay: pull-down from mitotic HeLa lysate with bead-immobilised peptide (FIG. 1A).
Assay [3] has as its target Plk1 PBD (residues 326-603), purified recombinant (UniProt P53350). Kind of assay: ITC, 25 C.
Assay [4] addresses PBD of human Plk2 (residues 373 to 685) (human) (UniProt Q9NYY3). The experiment in a line: ITC; no saturable binding.
The next assay addresses Flag-Plk1(K82M) (UniProt P53350). The experiment in a line: pull-down from mixed HeLa lysates, anti-Flag blot (FIG. 3D).
Assay [5] deals with PBD of human Plk2 (residues 373 to 685) (human) (UniProt Q9NYY3). Kind of assay: ITC.
Sequence of PBD of human Plk2 (residues 373 to 685) (human) (Q9NYY3 373-685 limits assumed): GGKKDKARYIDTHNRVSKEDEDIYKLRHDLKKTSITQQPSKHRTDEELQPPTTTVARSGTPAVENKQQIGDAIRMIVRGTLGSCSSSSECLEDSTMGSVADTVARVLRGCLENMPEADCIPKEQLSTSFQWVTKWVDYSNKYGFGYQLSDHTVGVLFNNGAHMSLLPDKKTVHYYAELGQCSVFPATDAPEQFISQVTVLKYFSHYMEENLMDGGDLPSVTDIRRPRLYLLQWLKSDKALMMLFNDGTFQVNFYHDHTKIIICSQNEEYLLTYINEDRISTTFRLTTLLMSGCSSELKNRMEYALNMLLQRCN

Sequence of Flag-Plk1(K82M) (P53350 whole entry K82M, the tested form may be a part): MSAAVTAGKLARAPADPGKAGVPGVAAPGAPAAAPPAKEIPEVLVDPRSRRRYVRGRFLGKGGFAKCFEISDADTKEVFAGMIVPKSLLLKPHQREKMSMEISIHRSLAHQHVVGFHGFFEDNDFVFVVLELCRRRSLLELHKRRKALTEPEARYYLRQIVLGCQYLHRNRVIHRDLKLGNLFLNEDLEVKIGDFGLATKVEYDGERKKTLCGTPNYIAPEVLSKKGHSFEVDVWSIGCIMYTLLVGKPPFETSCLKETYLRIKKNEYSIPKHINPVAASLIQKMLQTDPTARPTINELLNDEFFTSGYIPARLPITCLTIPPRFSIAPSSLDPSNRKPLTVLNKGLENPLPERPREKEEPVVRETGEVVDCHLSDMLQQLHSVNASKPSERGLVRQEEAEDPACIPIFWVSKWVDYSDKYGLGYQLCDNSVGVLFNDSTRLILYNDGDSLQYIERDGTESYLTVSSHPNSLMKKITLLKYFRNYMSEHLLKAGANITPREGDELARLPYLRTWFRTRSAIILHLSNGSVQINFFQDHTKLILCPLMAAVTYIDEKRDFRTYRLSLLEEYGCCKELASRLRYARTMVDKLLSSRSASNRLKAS
Sequence of Plk1 PBD (residues 326-603), purified recombinant (P53350 326-603 limits assumed): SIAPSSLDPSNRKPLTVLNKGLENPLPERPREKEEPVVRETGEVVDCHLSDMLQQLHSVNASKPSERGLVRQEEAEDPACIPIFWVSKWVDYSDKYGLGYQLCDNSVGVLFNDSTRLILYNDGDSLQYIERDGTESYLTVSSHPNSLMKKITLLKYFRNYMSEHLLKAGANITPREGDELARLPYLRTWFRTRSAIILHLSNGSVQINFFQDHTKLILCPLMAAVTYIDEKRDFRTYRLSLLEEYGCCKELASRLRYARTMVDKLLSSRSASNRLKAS
Sequence of Plk1 (endogenous, in mitotic HeLa cell lysates) (P53350 2-603 limits assumed): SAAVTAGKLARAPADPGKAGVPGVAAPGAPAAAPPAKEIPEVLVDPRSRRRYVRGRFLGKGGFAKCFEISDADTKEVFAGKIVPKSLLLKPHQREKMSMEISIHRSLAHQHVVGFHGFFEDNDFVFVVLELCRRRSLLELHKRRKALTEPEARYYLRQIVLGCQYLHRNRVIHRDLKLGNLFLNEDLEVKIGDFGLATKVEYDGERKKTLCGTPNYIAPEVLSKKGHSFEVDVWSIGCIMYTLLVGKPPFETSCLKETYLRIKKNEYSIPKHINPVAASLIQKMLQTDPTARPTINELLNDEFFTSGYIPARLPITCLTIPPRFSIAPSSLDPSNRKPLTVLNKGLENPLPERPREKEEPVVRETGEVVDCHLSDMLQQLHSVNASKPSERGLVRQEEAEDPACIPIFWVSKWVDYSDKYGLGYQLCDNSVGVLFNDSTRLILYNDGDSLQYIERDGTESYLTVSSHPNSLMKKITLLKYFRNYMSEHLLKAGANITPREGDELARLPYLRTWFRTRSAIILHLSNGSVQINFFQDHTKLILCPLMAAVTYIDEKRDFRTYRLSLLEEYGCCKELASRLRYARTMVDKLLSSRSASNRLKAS

For LHSpT (peptide), the fold weaker binding than PLHSpT in assay [1] came to 50 fold. In assay [2], the fold decrease in binding against PLHSpT was 7 fold.

On to LHSpTA (peptide), for which the Kd in assay [3] was 450 nM.

MQSpTPL (peptide): in assay [4], the initial heats of interaction is -1.68 kcal/mol.

Regarding “PLHSpT with Leu-3 mutated to Ala (peptide)”, the fold decrease in binding against PLHSpT with Flag-Plk1(K82M) came to 3 fold.

As for PLQSpT (peptide), the initial heats of interaction in assay [5] was 1.1 kcal/mol.

Take PPHSpT (peptide): the fold decrease in binding against PLHSpT with Flag-Plk1(K82M) stood at 20 fold.
